Measurements from US20130035249A1.

Tests used:
[1] = molecular target: full-length human CEA (human) (UniProt P06731); assay: binding to CHO cells expressing full-length CEA (method of the KD not described)
[2] = molecular target: full-length human CEA (human) (UniProt P06731); assay: binding to CHO cells co-expressing full-length CEA and the CEA splice variant (method of the KD not described)

Kd [1]: 5 nM
Kd [2]: 5.6 nM
Substance: MEDI-565 (bispecific antibody)
